Data on 1 variant can be found in paper PMC11798926.

First the molecules themselves.
B1: myc-tagged SynDIG4 (wild type) [rat] / HA-tagged μ2 AP subunit [not stated] (parent)
chain 1: MSSEKSGLPDSVPHTSPPPYNAPQPPAEPPIPPPQTAPSSHHHHHHHYHQSGTATLPRLGAGGLASAAAGAQRGPSSSATLPRPPHHAPPGPAAGAPPPGCATLPRMPPDPYLQETRFEGPLPPPPPAAAAPPPPAPAPTAQAPGFVVPTHAGAVGTLPLGGYVAPGYPLQLQPCTAYVPVYPVGTPYASGTPGGPGVTSTLPPPPQGPGLALLEPRRPPHDYMPIAVLTTICCFWPTGIIAIFKAVQVRTALARGDLVSAEIASREARNFSFISLAVGIAAMVLCTILTVVIIIAAQHHENYWDP
chain 2: MIGGLFIYNHKGEVLISRVYRDDIGRNAVDAFRVNVIHARQQVRSPVTNIARTSFFHVKRSNIWLAAVTKQNVNAAMVFEFLYKMCDVMAAYFGKISEENIKNNFVLIYELLDEILDFGYPQNSETGALKTFITQQGIKSQHQTKEEQSQITSQVTGQIGWRREGIKYRRNELFLDVLESVNLLMSPQGQVLSAHVSGRVVMKSYLSGMPECKFGMNDKIVIEKQGKGTADETSKSGKQSIAIDDCTFHQCVRLSKFDSERSISFIPPDGEFELMRYRTTKDIILPFRVIPLVREVGRTKLEVKVVIKSNFKPSLLAQKIEVRIPTPLNTSGVQVICMKGKAKYKASENAIVWKIKRMAGMKESQISAEIELLPTNDKKKWARPPISMNFEVPFAPSGLKVRYLKVFEPKLNYSDHDVIKWVRYIGRSGIYETRC

The variants in one assay derive from B1. The experiment in a line: co-immunoprecipitation (IP: HA, blot: myc), quantified. The conditions noted are these: with HA-tagged μ2 AP subunit; HEK293T cells; first bar chart of panel D (SD4 vs AVPA); parent: 100; read off a plot.
On to chain 1 Y178A V181A, for which the percent of parent amounted to 45 %SD4.

Still in this assay, the particulars now being: with HA-tagged μ2 AP subunit; HEK293T cells; third bar chart of panel D (SD4 vs AVPA vs ∆170-89); marked ns; parent: 100; read off a plot.
As for chain 1 Y178A V181A, the percent of parent was determined as 55 %SD4.
